Sequences and labels used below:
T1: μ1A (AP1M1) expressed from cDNA in COS-7 cells, Q9BXS5
T1 chain: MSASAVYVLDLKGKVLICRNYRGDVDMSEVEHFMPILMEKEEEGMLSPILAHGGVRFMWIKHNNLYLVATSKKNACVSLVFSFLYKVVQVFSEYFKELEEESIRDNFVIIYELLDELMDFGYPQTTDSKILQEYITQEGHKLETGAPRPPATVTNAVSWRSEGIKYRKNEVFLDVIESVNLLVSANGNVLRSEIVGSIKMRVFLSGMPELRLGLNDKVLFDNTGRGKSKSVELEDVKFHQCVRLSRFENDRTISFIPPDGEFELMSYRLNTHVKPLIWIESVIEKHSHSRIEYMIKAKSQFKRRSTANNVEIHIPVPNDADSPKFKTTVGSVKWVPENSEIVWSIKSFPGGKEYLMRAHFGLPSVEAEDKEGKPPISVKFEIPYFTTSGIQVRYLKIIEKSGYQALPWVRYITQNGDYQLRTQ

B1: wild-type human sodium/iodide symporter (hNIS), Q92911 L562A; L563A (protein)
chain: MEAVETGERPTFGAWDYGVFALMLLVSTGIGLWVGLARGGQRSAEDFFTGGRRLAALPVGLSLSASFMSAVQVLGVPSEAYRYGLKFLWMCLGQLLNSVLTALLFMPVFYRLGLTSTYEYLEMRFSRAVRLCGTLQYIVATMLYTGIVIYAPALILNQVTGLDIWASLLSTGIICTFYTAVGGMKAVVWTDVFQVVVMLSGFWVVLARGVMLVGGPRQVLTLAQNHSRINLMDFNPDPRSRYTFWTFVVGGTLVWLSMYGVNQAQVQRYVACRTEKQAKLALLINQVGLFLIVSSAACCGIVMFVFYTDCDPLLLGRISAPDQYMPLLVLDIFEDLPGVPGLFLACAYSGTLSTASTSINAMAAVTVEDLIKPRLRSLAPRKLVIISKGLSLIYGSACLTVAALSSLLGGGVLQGSFTVMGVISGPLLGAFILGMFLPACNTPGVLAGLGAGLALSLWVALGATLYPPSEQTMRVLPSSAARCVALSVNASGLLDPALLPANDSSRAPSSGMDASRPALADSFYAISYLYYGALGTLTTVLCGALISCLTGPTKRSTLAPGAAWWDLARQTASVAPKEEVAILDDNLVKGPEELPTGNKKPPGFLPTNEDRLFFLGQKELEGAGSWTPCVGHDGGRDQQETNL
B2: wild-type human sodium/iodide symporter (hNIS), Q92911 Y120A (protein)
chain: B1 chain with Y120A, A562L, A563L
B3: wild-type human sodium/iodide symporter (hNIS), Q92911 L587A (protein)
chain: B1 chain with A562L, A563L, L587A
B4: wild-type human sodium/iodide symporter (hNIS), Q92911 L121A (protein)
chain: B1 chain with L121A, A562L, A563L
B5: wild-type human sodium/iodide symporter (hNIS), Q92911 L583A (protein)
chain: B1 chain with A562L, A563L, L583A
B6: wild-type human sodium/iodide symporter (hNIS), Q92911 L594A (protein)
chain: B1 chain with A562L, A563L, L594A
B7: wild-type human sodium/iodide symporter (hNIS), Q92911 Y118A (protein)
chain: B1 chain with Y118A, A562L, A563L

Percent of parent (% Relative to hNIS WT) data for 7 molecules are collected here from paper PMC9618391 (2022).

Numbering of substitutions follows the chain as printed. Numbers in names are those of the source.

For the assay, the target named is T1, μ1A (AP1M1) expressed from cDNA in …. Kind of assay: co-immunoprecipitation with Western blot quantification. The conditions noted are these: chain shown with the change; COS-7 cells cotransfected with hNIS and μ1A; IP α-μ1A, WB α-hNIS; parent: est. 100; read off a plot. Background: Immunoblotting shows a protein as a band on a membrane.
Regarding B1, the percent of parent (% Relative to hNIS WT) is 9. Take B2: the percent of parent (% Relative to hNIS WT) amounted to 65. Consider B3, for which the percent of parent (% Relative to hNIS WT) stood at 100. The value for B4 was 17; that for B5 was 60. The value for B6 was 100; that for B7 was 80.
